Data: patent publication US8951961B2, “Structural and mechanistic basis for novel compound biosynthesis using 4-electron hexose oxidase” (Academia Sinica, priority 2009, dated 2015)

These molecules were tested on Dbv29 (assay: Relative enzymatic activities of Dbv29 mutants). Conditions: relative to WT.
Format: biochemical, Nonomuraea sp. ATCC39727

Molecule	Relative activity
R360L (protein) MTGGTGADAASAGASSTRPELRGERCLPPAGPVKVTPDDPRYLNLKLRGANSRFNGEPDYIHLVGSTQQVADAVEETVRTGKRVAVRSGGHCFEDFVDNPDVKVIIDMSLLTEIAYDPSMNAFLIEPGNTLSEVYEKLYLGWNVTIPGGVCGGVGVGGHICGGGYGPLSRQFGSVVDYLYAVEVVVVNKQGKARVIVATRERDDPHHDLWWAHTGGGGGNFGVVTKYWMRVPEDVGRNPERLLPKPPATLLTSTVTFDWAGMTEAAFSRLLRNHGEWYERNSGPDSPYTGLWSQLMIGNEVPGMGESGFMMPIQVDATRPDARRLLDAHIEAVIDGVPPAEVPEPIEQRWLASTPGRGGLGPASKTKAGYLRKRLTDRQIQAVYENMTHMDGIDYGAVWLIGYGGKVNTVDPAATALPQRDAILKVNYITGWANPGNEAKHLTWVRKLYADVYAETGGVPVPNDVSDGAYINYPDSDLADPGLNTSGVPWHDLYYKGNHPRLRKVKAAYDPRNHFHHALSIRP	0.23
S364K (protein) MTGGTGADAASAGASSTRPELRGERCLPPAGPVKVTPDDPRYLNLKLRGANSRFNGEPDYIHLVGSTQQVADAVEETVRTGKRVAVRSGGHCFEDFVDNPDVKVIIDMSLLTEIAYDPSMNAFLIEPGNTLSEVYEKLYLGWNVTIPGGVCGGVGVGGHICGGGYGPLSRQFGSVVDYLYAVEVVVVNKQGKARVIVATRERDDPHHDLWWAHTGGGGGNFGVVTKYWMRVPEDVGRNPERLLPKPPATLLTSTVTFDWAGMTEAAFSRLLRNHGEWYERNSGPDSPYTGLWSQLMIGNEVPGMGESGFMMPIQVDATRPDARRLLDAHIEAVIDGVPPAEVPEPIEQRWLASTPGRGGRGPAKKTKAGYLRKRLTDRQIQAVYENMTHMDGIDYGAVWLIGYGGKVNTVDPAATALPQRDAILKVNYITGWANPGNEAKHLTWVRKLYADVYAETGGVPVPNDVSDGAYINYPDSDLADPGLNTSGVPWHDLYYKGNHPRLRKVKAAYDPRNHFHHALSIRP	0.04
Y370F (protein) MTGGTGADAASAGASSTRPELRGERCLPPAGPVKVTPDDPRYLNLKLRGANSRFNGEPDYIHLVGSTQQVADAVEETVRTGKRVAVRSGGHCFEDFVDNPDVKVIIDMSLLTEIAYDPSMNAFLIEPGNTLSEVYEKLYLGWNVTIPGGVCGGVGVGGHICGGGYGPLSRQFGSVVDYLYAVEVVVVNKQGKARVIVATRERDDPHHDLWWAHTGGGGGNFGVVTKYWMRVPEDVGRNPERLLPKPPATLLTSTVTFDWAGMTEAAFSRLLRNHGEWYERNSGPDSPYTGLWSQLMIGNEVPGMGESGFMMPIQVDATRPDARRLLDAHIEAVIDGVPPAEVPEPIEQRWLASTPGRGGRGPASKTKAGFLRKRLTDRQIQAVYENMTHMDGIDYGAVWLIGYGGKVNTVDPAATALPQRDAILKVNYITGWANPGNEAKHLTWVRKLYADVYAETGGVPVPNDVSDGAYINYPDSDLADPGLNTSGVPWHDLYYKGNHPRLRKVKAAYDPRNHFHHALSIRP	0.10
Y165W (protein) MTGGTGADAASAGASSTRPELRGERCLPPAGPVKVTPDDPRYLNLKLRGANSRFNGEPDYIHLVGSTQQVADAVEETVRTGKRVAVRSGGHCFEDFVDNPDVKVIIDMSLLTEIAYDPSMNAFLIEPGNTLSEVYEKLYLGWNVTIPGGVCGGVGVGGHICGGGWGPLSRQFGSVVDYLYAVEVVVVNKQGKARVIVATRERDDPHHDLWWAHTGGGGGNFGVVTKYWMRVPEDVGRNPERLLPKPPATLLTSTVTFDWAGMTEAAFSRLLRNHGEWYERNSGPDSPYTGLWSQLMIGNEVPGMGESGFMMPIQVDATRPDARRLLDAHIEAVIDGVPPAEVPEPIEQRWLASTPGRGGRGPASKTKAGYLRKRLTDRQIQAVYENMTHMDGIDYGAVWLIGYGGKVNTVDPAATALPQRDAILKVNYITGWANPGNEAKHLTWVRKLYADVYAETGGVPVPNDVSDGAYINYPDSDLADPGLNTSGVPWHDLYYKGNHPRLRKVKAAYDPRNHFHHALSIRP	0.03
Y403F (protein) MTGGTGADAASAGASSTRPELRGERCLPPAGPVKVTPDDPRYLNLKLRGANSRFNGEPDYIHLVGSTQQVADAVEETVRTGKRVAVRSGGHCFEDFVDNPDVKVIIDMSLLTEIAYDPSMNAFLIEPGNTLSEVYEKLYLGWNVTIPGGVCGGVGVGGHICGGGYGPLSRQFGSVVDYLYAVEVVVVNKQGKARVIVATRERDDPHHDLWWAHTGGGGGNFGVVTKYWMRVPEDVGRNPERLLPKPPATLLTSTVTFDWAGMTEAAFSRLLRNHGEWYERNSGPDSPYTGLWSQLMIGNEVPGMGESGFMMPIQVDATRPDARRLLDAHIEAVIDGVPPAEVPEPIEQRWLASTPGRGGRGPASKTKAGYLRKRLTDRQIQAVYENMTHMDGIDYGAVWLIGFGGKVNTVDPAATALPQRDAILKVNYITGWANPGNEAKHLTWVRKLYADVYAETGGVPVPNDVSDGAYINYPDSDLADPGLNTSGVPWHDLYYKGNHPRLRKVKAAYDPRNHFHHALSIRP	0.65
Y470F (protein) MTGGTGADAASAGASSTRPELRGERCLPPAGPVKVTPDDPRYLNLKLRGANSRFNGEPDYIHLVGSTQQVADAVEETVRTGKRVAVRSGGHCFEDFVDNPDVKVIIDMSLLTEIAYDPSMNAFLIEPGNTLSEVYEKLYLGWNVTIPGGVCGGVGVGGHICGGGYGPLSRQFGSVVDYLYAVEVVVVNKQGKARVIVATRERDDPHHDLWWAHTGGGGGNFGVVTKYWMRVPEDVGRNPERLLPKPPATLLTSTVTFDWAGMTEAAFSRLLRNHGEWYERNSGPDSPYTGLWSQLMIGNEVPGMGESGFMMPIQVDATRPDARRLLDAHIEAVIDGVPPAEVPEPIEQRWLASTPGRGGRGPASKTKAGYLRKRLTDRQIQAVYENMTHMDGIDYGAVWLIGYGGKVNTVDPAATALPQRDAILKVNYITGWANPGNEAKHLTWVRKLYADVYAETGGVPVPNDVSDGAFINYPDSDLADPGLNTSGVPWHDLYYKGNHPRLRKVKAAYDPRNHFHHALSIRP	0.21
Y453F (protein) MTGGTGADAASAGASSTRPELRGERCLPPAGPVKVTPDDPRYLNLKLRGANSRFNGEPDYIHLVGSTQQVADAVEETVRTGKRVAVRSGGHCFEDFVDNPDVKVIIDMSLLTEIAYDPSMNAFLIEPGNTLSEVYEKLYLGWNVTIPGGVCGGVGVGGHICGGGYGPLSRQFGSVVDYLYAVEVVVVNKQGKARVIVATRERDDPHHDLWWAHTGGGGGNFGVVTKYWMRVPEDVGRNPERLLPKPPATLLTSTVTFDWAGMTEAAFSRLLRNHGEWYERNSGPDSPYTGLWSQLMIGNEVPGMGESGFMMPIQVDATRPDARRLLDAHIEAVIDGVPPAEVPEPIEQRWLASTPGRGGRGPASKTKAGYLRKRLTDRQIQAVYENMTHMDGIDYGAVWLIGYGGKVNTVDPAATALPQRDAILKVNYITGWANPGNEAKHLTWVRKLYADVFAETGGVPVPNDVSDGAYINYPDSDLADPGLNTSGVPWHDLYYKGNHPRLRKVKAAYDPRNHFHHALSIRP	0.82
Y165F (protein) MTGGTGADAASAGASSTRPELRGERCLPPAGPVKVTPDDPRYLNLKLRGANSRFNGEPDYIHLVGSTQQVADAVEETVRTGKRVAVRSGGHCFEDFVDNPDVKVIIDMSLLTEIAYDPSMNAFLIEPGNTLSEVYEKLYLGWNVTIPGGVCGGVGVGGHICGGGFGPLSRQFGSVVDYLYAVEVVVVNKQGKARVIVATRERDDPHHDLWWAHTGGGGGNFGVVTKYWMRVPEDVGRNPERLLPKPPATLLTSTVTFDWAGMTEAAFSRLLRNHGEWYERNSGPDSPYTGLWSQLMIGNEVPGMGESGFMMPIQVDATRPDARRLLDAHIEAVIDGVPPAEVPEPIEQRWLASTPGRGGRGPASKTKAGYLRKRLTDRQIQAVYENMTHMDGIDYGAVWLIGYGGKVNTVDPAATALPQRDAILKVNYITGWANPGNEAKHLTWVRKLYADVYAETGGVPVPNDVSDGAYINYPDSDLADPGLNTSGVPWHDLYYKGNHPRLRKVKAAYDPRNHFHHALSIRP	0.70
Y428F (protein) MTGGTGADAASAGASSTRPELRGERCLPPAGPVKVTPDDPRYLNLKLRGANSRFNGEPDYIHLVGSTQQVADAVEETVRTGKRVAVRSGGHCFEDFVDNPDVKVIIDMSLLTEIAYDPSMNAFLIEPGNTLSEVYEKLYLGWNVTIPGGVCGGVGVGGHICGGGYGPLSRQFGSVVDYLYAVEVVVVNKQGKARVIVATRERDDPHHDLWWAHTGGGGGNFGVVTKYWMRVPEDVGRNPERLLPKPPATLLTSTVTFDWAGMTEAAFSRLLRNHGEWYERNSGPDSPYTGLWSQLMIGNEVPGMGESGFMMPIQVDATRPDARRLLDAHIEAVIDGVPPAEVPEPIEQRWLASTPGRGGRGPASKTKAGYLRKRLTDRQIQAVYENMTHMDGIDYGAVWLIGYGGKVNTVDPAATALPQRDAILKVNFITGWANPGNEAKHLTWVRKLYADVYAETGGVPVPNDVSDGAYINYPDSDLADPGLNTSGVPWHDLYYKGNHPRLRKVKAAYDPRNHFHHALSIRP	1.00
S364R (protein) MTGGTGADAASAGASSTRPELRGERCLPPAGPVKVTPDDPRYLNLKLRGANSRFNGEPDYIHLVGSTQQVADAVEETVRTGKRVAVRSGGHCFEDFVDNPDVKVIIDMSLLTEIAYDPSMNAFLIEPGNTLSEVYEKLYLGWNVTIPGGVCGGVGVGGHICGGGYGPLSRQFGSVVDYLYAVEVVVVNKQGKARVIVATRERDDPHHDLWWAHTGGGGGNFGVVTKYWMRVPEDVGRNPERLLPKPPATLLTSTVTFDWAGMTEAAFSRLLRNHGEWYERNSGPDSPYTGLWSQLMIGNEVPGMGESGFMMPIQVDATRPDARRLLDAHIEAVIDGVPPAEVPEPIEQRWLASTPGRGGRGPARKTKAGYLRKRLTDRQIQAVYENMTHMDGIDYGAVWLIGYGGKVNTVDPAATALPQRDAILKVNYITGWANPGNEAKHLTWVRKLYADVYAETGGVPVPNDVSDGAYINYPDSDLADPGLNTSGVPWHDLYYKGNHPRLRKVKAAYDPRNHFHHALSIRP	0.08
T366L (protein) MTGGTGADAASAGASSTRPELRGERCLPPAGPVKVTPDDPRYLNLKLRGANSRFNGEPDYIHLVGSTQQVADAVEETVRTGKRVAVRSGGHCFEDFVDNPDVKVIIDMSLLTEIAYDPSMNAFLIEPGNTLSEVYEKLYLGWNVTIPGGVCGGVGVGGHICGGGYGPLSRQFGSVVDYLYAVEVVVVNKQGKARVIVATRERDDPHHDLWWAHTGGGGGNFGVVTKYWMRVPEDVGRNPERLLPKPPATLLTSTVTFDWAGMTEAAFSRLLRNHGEWYERNSGPDSPYTGLWSQLMIGNEVPGMGESGFMMPIQVDATRPDARRLLDAHIEAVIDGVPPAEVPEPIEQRWLASTPGRGGRGPASKLKAGYLRKRLTDRQIQAVYENMTHMDGIDYGAVWLIGYGGKVNTVDPAATALPQRDAILKVNYITGWANPGNEAKHLTWVRKLYADVYAETGGVPVPNDVSDGAYINYPDSDLADPGLNTSGVPWHDLYYKGNHPRLRKVKAAYDPRNHFHHALSIRP	0.13
